Test results published in the supplement of paper PMC12764529.
± gives the half width of the 95% confidence interval.

How the values were obtained:
[1] = folding stability dG unfold (combined trypsin and chymotrypsin); higher = more stable
Method in brief: (§1)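 Only designs with AlphaFold2 dimer inter-PAE above 15 were retained; each was a mini-protein under 80 residues with no cysteine, in a PA-tagged cDNA display construct. After digestion with trypsin and chymotrypsin and sequencing, K50 was inferred by Bayesian fitting of counts, and unfolding free energy was derived per protease or combined against a sequence-predicted unfolded-state K50 and a shared folded-state K50.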

[2] = folding stability dG unfold from trypsin proteolysis; higher = more stable
Procedure: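 Folding stability of de novo designed mini-proteins (<80 aa, no Cys; designed by TrROS, TrMRF, ProteinMPNN and the joint model) was measured by cDNA display proteolysis with trypsin and chymotrypsin. Each protease was used at 11 concentrations in a threefold dilution series plus a no-protease condition. K50 was inferred by Bayesian fitting of sequencing counts, and dG unfold was derived against a sequence-predicted unfolded-state K50 (Tsuboyama et al. method). Sequences shown include variable-length N-terminal GS-type padding (SAGGSAGG...) inside a display construct carrying a PA tag. Rows were kept only if the AF2 dimer inter-PAE was >15, to exclude likely homo-oligomers.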

[3] = folding stability dG unfold from chymotrypsin proteolysis; higher = more stable
Method in brief: as §1

Sequence | folding stability dG unfold [1] [kcal/mol] | folding stability dG unfold [2] [kcal/mol] | folding stability dG unfold [3] [kcal/mol]
EMTVTVKIEIEKTPDSIKIKITVEVNGKKIEEVEITYDKKTKKIYIKVKVKSKEDLDELKKLLEKLGFKVES [r1_455_TrROS_Hall] | > 6 | 3.81 ± 0.31 | 
GKVLAVPVSYDPETGTVTVLEVKDTGTTLATLKPLPVVDISREELEKLAKGLAEENPELKELAEKLVEELAS [r1_330_TrMRF] | -0.197 ± 0.35 | -0.145 ± 0.075 | 
GMVLVRVELYRPDEEELVAEVEIPFPVPESLLENLSEEEREKLREEAEKAAEKLAEELGDVEVKPEIYTDLS [r1_115_TrMRF] | -0.317 ± 0.42 | 0.147 ± 0.095 | 
IKIRFPDGHEITEIDDLSFSGNGYIEINVKVRNPENPQTQPMPIYIPVPPVPPPPVKIERDPGNGKWKYEDS [r1_411_TrROS] | -0.179 ± 0.33 | 0.799 ± 0.07 | 
LKITLPGGAEVTEIDDIKVSSDGYIELNVRVRNPDNDVEVPVPVYIPVPPVPPVPVKVSFIPGTGKLVVDDS [r1_411_TrMRF] | < -1 | 0.0956 ± 0.11 | 
MKKTIPFPPSHPDLSPEEVAERLRERFLSPEESITVTTDPATGTTTVTATRGNVTTVATLSPAGTVTVTGAS [r1_131_JUSTAS] | < -1 | -0.0831 ± 0.14 | 
SAAPTSSGPISLNKPEILTITSVEADPETGTITTPTRVELTEEELDPFNPEIPTFKKKYLDVTLTTPTSSAG [r14_888_JUSTAS] | < -1 | -0.643 ± 0.45 | 
SAGDWMMVEMTVDFPPDQITEEEIKQALQEHFGEVEIDWNPGDGRIPITVYMPPGDMNKIQDALKEAGLSAG [r5_378_TrROS] | 0.218 ± 0.19 | 0.755 ± 0.053 | 
SAGGALAVKVEFDEEIPTATITYRAPVPGEGGAVDVPADEVAAAIAKALGLPDLEEVTVNVPAPDAPLSAGG [r13_327_JUSTAS] | -0.543 ± 0.22 | 0.197 ± 0.075 | 
SAGGAMPKTITVTDPTSSREEAEALLASPERLEAIAEEIKPEFPGVDLTVTVSSDPATGTLTITIVSSAGGS [r16_320_JUSTAS] | < -1 | 0.289 ± 0.072 | 
SAGGDILLVIPAELFFDEDGKPSEEAVKAIEKAAELAEKLNKEGKPVKIEVKVVPLLPPVSPSDPYVFSAGG [r13_731_TrMRF] | -0.358 ± 0.36 | 0.162 ± 0.055 | 
SAGGELREKIEEAVEEAAKAGKPVVKTSEIEARLGRPLTPELLEYVREKGIIERDPKGSITITLPEDKSAGG [r13_188_JUSTAS] | < -1 | -0.895 ± 0.91 | 
SAGGEVKFEKNEDGTITVTVKAESEEEALEALKKLLEEQGFEIEEIKVERLPNGEVKITIKIKPKKPSAGGS [r8_253_TrROS_Hall] |  | 3.65 ± 0.4 | 
SAGGFRINIPPNMPKEKLEEIQDEAEEESGMPVTINTNPDDGSLHIEFPGGPEWKQRRIQDEIRELLSAGGS [r16_227_TrROS] | < -1 | -0.507 ± 0.44 | 
SAGGFRITPEFLEELLKNMPPGDPNKTITVKVEMPMRYEPRKGGNGQPQYRHEYPMTHEFPITIPPKSAGGS [r16_708_TrROS] | -0.349 ± 0.19 | 0.32 ± 0.066 | 
SAGGGEVKKVTYVVVIELPPDPETGEPHPLPLVLEREYPADDPEAVESDIKKALDEIDIPEEAKEALSAGGS [r16_40_TrMRF] | 0.123 ± 0.32 | 0.403 ± 0.083 | 
SAGGGMTLTQVSSHQSPNGGVPTTLVTETLFYPETGTAVVLTKVRLPETGEVTTVASTVLPIPPPLLSAGGS [r8_384_JUSTAS] | -0.726 ± 0.31 | -0.0612 ± 0.066 | 
SAGGGSHTFKDNGKKIKITVYPPPNGNMRVQLQIYDPDDGKPKPKAIAPFRGGSVEDAIKDLLDAGISAGGS [r16_378_TrROS] | -0.625 ± 0.32 | -0.0278 ± 0.19 | 
SAGGGSMVNISKEELAKKIAKELGKDFPTENVKVKKEIYPEPVSIYTITIKVPGTNITLNVPITLPESAGGS [r16_42_JUSTAS] | -0.226 ± 0.22 | -0.043 ± 0.098 | 
SAGGGSSMVTTVIPVLRTETLFDENGNVIGPRTTVETIELEAEVPLPPRPPLVFSFVPPELRDPAVLLSAGG [r13_508_JUSTAS] | < -1 | -0.299 ± 0.24 | 
SAGGGVSTSTDPNSDTTTTTVPLPNSDSTATSTHNPSTGTSTTTVPTNNTTTTYSPGGTTTATTTLPTSAGG [r13_101_JUSTAS] | -0.425 ± 0.18 | 0.465 ± 0.034 | 
SAGGKPDIKDIEIDDVEYDPNEGYFRYEVEIKWPGGKERPIEVPMKYEDGRMTPEDIRKMAKKLIKNSAGGS [r16_221_TrROS] | < -1 | 0.423 ± 0.15 | 
SAGGKVREIDFPMDPGELRDAIDELKREGYMVMIEMPNGQERTIDPNLEDLPPGMPFEIYVMPPKDGSAGGS [r16_31_TrROS] | < -1 | -0.212 ± 0.33 | 
SAGGSAGGSAGGKAVFLKTKTVTRTVTRKTTKNGKEEEVATETVTTVELVEVDLDNGEASAGGSAGGSAGGS [r10_93_TrROS_Hall] |  | -0.708 ± 0.37 | 

Sequence | folding stability dG unfold [1] [kcal/mol] | folding stability dG unfold [2] [kcal/mol] | folding stability dG unfold [3] [kcal/mol]
SAGGSAGGSAGGKVTVEKDKETGKYTVKIVNKKTKKEITVTVPAKDKEKALKKAKELAKSAGGSAGGSAGGS [r10_1117_TrROS_Hall] |  | -0.349 ± 0.35 | 
SAGGSAGGSAGGMVLKTETRPGFEGGRAWTVTTTVYPDSVVVTTTPPDGVPTTTTIPPSSSAGGSAGGSAGG [r7_516_JUSTAS] |  | -0.221 ± 0.24 | 
SAGGSAGGSAGKRKIIFQVDNPEDMLDEIKIPPGGEVKIENIEIQPQPNGRHWAVFEIKDSAGGSAGGSAGG [r11_150_TrROS] |  | -0.398 ± 0.4 | 
SAGGSAGGSAGKTIPIDEEEAKALFKAGNPRTITRLLPDGKTETLTYQPETNEVSVLDPKAPSAGGSAGGSA [r18_400_JUSTAS] |  | -0.795 ± 0.61 | 
SAGSMKTEEKTEEVPPVTLPFGPSVRVRRVTTTITDPSTGKIKEVTVELFDPAGRRRVDPVKKVPVELLSAG [r14_631_JUSTAS] |  | 0.794 ± 0.13 | 
SAGVEYEVKVEYDPETGTVTAPVTFPDGPEAIVEIEFEEPGRYKMIIRIEEEEKEFEVDPDAIDEITIESAG [r5_14_TrMRF] |  | -0.551 ± 0.25 | 
SGMTTPVAEIDNTDGKPEKVKEWIKKTIPKTPPVTVTRTLASGAPSTWTIDPNTGKVTESVPGGHVTVAASA [r9_853_JUSTAS] | < -1 |  | -1.07 ± 0.7
SGMVTLEDIAAAPPGTPVVVTTKKQGSKNLTFIDAVVDGARSSASYPSIEEARKELEAVGYPVEFVDPAESA [r9_1021_JUSTAS] | -0.429 ± 0.19 |  | 0.143 ± 0.066
SIIIPPKESAEEVLNEIKELLPPGRKYKITVFNPENGRMHEADFDPKKGNIEVEPHPFPNGPPFLMIERKSA [r9_1059_TrROS] | -0.42 ± 0.49 |  | -0.387 ± 0.63
SITISPDKVYTLKNVRVGDYEVDGLVAVAGPDGTVYVPADVRPVVVPPPAPPVGLDPVDGGVYDITDPSVSA [r9_603_TrMRF] | < -1 |  | -0.965 ± 0.61
SKPITADEIAKHFPGIKDVEPTPNKKRLDFDNPNGHKPTIEVSPDGTIMIEHQNPDNGQKQEQEIPIDDLSA [r9_427_TrROS] | 0.0598 ± 0.26 |  | 0.596 ± 0.056
SKTIYFPIPNDDPEEAVEWIADKLLEEHGHKIKDVEIPHKNGYYVRIEVDPNNPKIDIEVWPYDPDGEPLSA [r9_173_TrROS] | 0.534 ± 0.52 |  | 0.728 ± 0.18
SKTVVIAADPNNPEAIKKAIEEAPPDTTIVIVVPLENGEYPKVTITRKPPEVPPIPPELLSEEEIKELLPSA [r9_1103_TrMRF] | 0.42 ± 0.14 |  | 0.836 ± 0.053
SMTIKELLKAHPGQPVEDLAKRIMDEMNANFPNGMPIKINLEYDPGGIKVDVEMWNNDKPQTDEFTIRPDSA [r9_805_TrROS] | -0.000922 ± 0.15 |  | 0.327 ± 0.091
SMTLVGTTTLPNATVTTYKNETKYIVLTYDPVEAGEPAAVSYVEKYEGNKVVKKKKVAPEEIEKAIEELLSA [r9_57_JUSTAS] | 0.247 ± 0.48 |  | 0.609 ± 0.32
SMYVFSTGSKPSSEQLLEKLEKVPNLPKELIKKNTIISDTESSPEIVIPKEVYDKIKKENPEAVKVIESGSA [r9_160_JUSTAS] | < -1 |  | -0.991 ± 0.56
SPAPPMRIDNIKPEKEDPNGDERKYRVYWQGPNGRPYHYEGPLEELEDMLDEDNIDPDNFWPGDEITIKVSA [r9_1078_TrROS] | 0.421 ± 0.31 |  | 0.869 ± 0.12
SPVAVVTYEDGSVSEVPFTHPDGRAYDLSRGPGDVATLTVTRLLPDGSLEPLPTVPFTSEAEAEAYLAAASA [r9_942_JUSTAS] | -0.231 ± 0.074 |  | 0.201 ± 0.12
SSSSLLKSSTEEVEVSTTFTKTSPDGSLTPVGTTTEVVTKTVKTVPKEILEKLKKEKEKPLPPEGNLGYLSA [r9_1192_JUSTAS] | 0.000763 ± 0.41 |  | 0.495 ± 0.36
SSTPKLEEIERPNARFKVTTYTYPNSVKTTADATFPDGTKGKIEETYTPTPEGVKKTVKKDLPPEVKEKLES [r1_153_JUSTAS] | < -1 |  | 0.0664 ± 0.46
SSTSMSTEPNRTVTTTTEKGGRSTVTTTTTTTFTASGETTTTTPVTTTTPPPPLGVYKDPAGVTRTRPLLSA [r9_456_JUSTAS] | -0.012 ± 0.072 |  | 0.339 ± 0.079
STRTVPIPIRWDNGRLSPDDIRNAIKKALPPGENVKITEETIQNFWQEWAGKNGKPMTPEDFPIRIEVKKSA [r9_197_TrROS] | -0.198 ± 0.27 |  | 0.0542 ± 0.36
TIKELAKKLGGPITVETEQYPIENPDGNPYYITDIEVQVNPNDGSLRINYEVYNPGNGKKQEEEDTIPLDDS [r1_448_TrROS] | < -1 |  | -0.708 ± 0.42
TLSPEEIEAEARARAEAAVAARPDSAADVELDVPVEFPVRTERRDPRSDRWSRSLSTVRLRLRLRLARGAGS [r1_90_JUSTAS] | -0.468 ± 0.24 |  | 0.343 ± 0.2
